From patent publication US20200230249A1 (UREKA SARL, published 2020)
Numbered stars: 1 amine (or outer) side, 2 acyl side, 3 side chain; on linkers, the order of the positions; unused ones are H or OH. Square brackets hold non-standard residues; d marks the D form. Ends that are not written are not given here. A^u = urea/ureido (oligourea) residue with alanine side chain, C[C@@H](CNC(=O)[*:2])N[*:1]; Au = A^u, ureido (oligourea) alanine residue, C[C@@H](CNC(=O)[*:2])N[*:1]; D^uα = urea/ureido residue with aspartic acid side chain; E^u = urea/ureido residue with glutamic acid side chain; Y^u = urea/ureido residue with tyrosine side chain

T1: mouse GLP-1 receptor endogenously expressed in βTC6 cells (mouse, UniProt O35659 22-463)
T1 sequence (looked up): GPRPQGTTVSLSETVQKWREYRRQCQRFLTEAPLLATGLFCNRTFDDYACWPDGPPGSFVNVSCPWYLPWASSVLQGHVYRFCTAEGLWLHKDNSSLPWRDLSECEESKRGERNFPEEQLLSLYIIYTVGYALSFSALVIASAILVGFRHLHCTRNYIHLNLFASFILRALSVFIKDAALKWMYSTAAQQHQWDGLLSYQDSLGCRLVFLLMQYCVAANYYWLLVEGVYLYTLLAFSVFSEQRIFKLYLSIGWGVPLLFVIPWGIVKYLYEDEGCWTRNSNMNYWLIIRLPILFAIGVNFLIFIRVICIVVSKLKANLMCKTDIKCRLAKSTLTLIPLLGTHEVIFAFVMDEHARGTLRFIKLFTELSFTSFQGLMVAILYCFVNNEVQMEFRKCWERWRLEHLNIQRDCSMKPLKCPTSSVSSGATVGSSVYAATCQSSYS


Target: T1, mouse GLP-1 receptor endogenously …
Assay: cell-based or functional assay

| Binder | EC50 (nM), cAMP production functional assay [nM] | Potency (%) compared to GLP-1-G^2, cAMP production [%] |
| --- | --- | --- |
| H-HGEGTFTSD[Au][Au][Au]LEGQAAKEFIAWLVKGRG-NH2 (also: oligourea (urea) backbone at A^u units) [GG2[A^UA^UA^U]^10-13] | 650 | 0.04 |
| HGEGTFTSDVSSYLEGQAAKEFIXXXKGRG (ureido (oligourea) residues A^u A^u A^u at positions 24-26 of the hybrid, replacing residues 24-27 of GLP-1-G2; C-terminal amide) [GG2[A^UA^UA^U]^24-27] | > 10000 | < 0.01 |
| H-HGEGTFTSDVSSY[Au][Au][Au]AAKEFIAWLVKGRG-NH2 (also: oligourea (urea) backbone at A^u units) [GG2[A^UA^UA^U]^14-17] | 353 | 0.07 |
| HGEGTFTSDVSSY[Y^u][E^u][A^u]AAKEFIAWLVKGRG-NH2 [GG2[Y^UE^UA^U]^14-17] | 0.18 | 135 |
| H-HGEGTFTSDVSSYLEGQAAKEFIAWLVKGRG-NH2 [GLP-1-G^2 (GG2)] | 0.24 | 100 |
| HGEGTFTSDVSSYLEGQA[A^u][A^u][A^u]IAWLVKGRG-NH2 (N-terminus assumed; SMILES CC[C@H](C)[C@H](NC(=O)NC[C@H](C)NC(=O)NC[C@H](C)NC(=O)NC[C@H](C)NC(=O)[C@H](C)NC(=O)[C@H](CCC(N)=O)NC(=O)CNC(=O)[C@H](CCC(=O)O)NC(=O)[C@H](CC(C)C)NC(=O)[C@H](Cc1ccc(O)cc1)NC(=O)[C@H](CO)NC(=O)[C@H](CO)NC(=O)[C@@H](NC(=O)[C@H](CC(=O)O)NC(=O)[C@H](CO)NC(=O)[C@@H](NC(=O)[C@H](Cc1ccccc1)NC(=O)[C@@H](NC(=O)CNC(=O)[C@H](CCC(=O)O)NC(=O)CNC(=O)[C@@H](N)Cc1c[nH]cn1)[C@@H](C)O)[C@@H](C)O)C(C)C)C(=O)N[C@@H](C)C(=O)N[C@@H](Cc1c[nH]c2ccccc12)C(=O)N[C@@H](CC(C)C)C(=O)N[C@H](C(=O)N[C@@H](CCCCN)C(=O)NCC(=O)N[C@@H](CCCNC(=N)N)C(=O)NCC(N)=O)C(C)C) [GG2[A^UA^UA^U]^19-22] | > 10000 | < 0.01 |
| HGEGTFTSDVSSYLEG[A^u][A^u][A^u]EFIAWLVKGRG-NH2 (N-terminus assumed; SMILES CC[C@H](C)[C@H](NC(=O)[C@H](Cc1ccccc1)NC(=O)[C@H](CCC(=O)O)NC(=O)NC[C@H](C)NC(=O)NC[C@H](C)NC(=O)NC[C@H](C)NC(=O)CNC(=O)[C@H](CCC(=O)O)NC(=O)[C@H](CC(C)C)NC(=O)[C@H](Cc1ccc(O)cc1)NC(=O)[C@H](CO)NC(=O)[C@H](CO)NC(=O)[C@@H](NC(=O)[C@H](CC(=O)O)NC(=O)[C@H](CO)NC(=O)[C@@H](NC(=O)[C@H](Cc1ccccc1)NC(=O)[C@@H](NC(=O)CNC(=O)[C@H](CCC(=O)O)NC(=O)CNC(=O)[C@@H](N)Cc1c[nH]cn1)[C@@H](C)O)[C@@H](C)O)C(C)C)C(=O)N[C@@H](C)C(=O)N[C@@H](Cc1c[nH]c2ccccc12)C(=O)N[C@@H](CC(C)C)C(=O)N[C@H](C(=O)N[C@@H](CCCCN)C(=O)NCC(=O)N[C@@H](CCCNC(=N)N)C(=O)NCC(N)=O)C(C)C) [GG2[A^UA^UA^U]^17-20] | 1600 | 0.01 |
| HGEGTFTS[D^uα][A^u][A^u]YLEGQAAKEFIAWLVKGRG-NH2 [GG2[D^UαA^UA^U]^9-12] | 13 | 2 |
| HGEGTFTSDVSSY[Y^u][E^u][A^u][A^u][A^u][A^u]FIAWLVKGRG-NH2 [GG2[Y^uE^uA^uA^uA^uA^u]^14-21] | 3.4 | 7 |
| HGEGTFTSDV[A^u][Y^u][A^u]EGQAAKEFIAWLVKGRG-NH2 [GG2[A^UY^UA^U]^11-14] | 1.6 | 15 |
| HGEGTFTSDVSSYL[E^u][A^u][A^u]AKEFIAWLVKGRG-NH2 [GG2[E^UA^UA^U]^15-18] | 1.9 | 13 |
| H-HGEGTFTSDVSSYL[Au][Au][Au]AKEFIAWLVKGRG-NH2 (also: oligourea (urea) backbone at A^u units) [GG2[A^UA^UA^U]^15-18] | 123 | 0.2 |
| HGEGTFTSDVSSYLEGQAAKEXXXLVKGRG (ureido (oligourea) residues F^uα I^u A^u at positions 22-24 of the hybrid, replacing residues 22-25 of GLP-1-G2; C-terminal amide) [GG2[F^UαI^UA^U]^22-25] | 62 | 0.4 |
| H-HGEGTFTSDVSSYLE[Au][Au][Au]KEFIAWLVKGRG-NH2 (also: oligourea (urea) backbone at A^u units) [GG2[A^UA^UA^U]^16-19] | 240 | 0.1 |
| HGEGTFTSDV[Au][Au][Au]EGQAAKEFIAWLVKGRG-NH2 (also: oligourea (urea) backbone at A^u units) [GG2[A^UA^UA^U]^11-14] | 97 | 0.2 |
| HGEGTFTSDVSSYLEGQ[A^u][A^u][A^u]FIAWLVKGRG-NH2 [GG2[A^UA^UA^U]^18-21] | 4.1 | 6 |
| HGEGTFTSDVSS[Au][Au][Au]QAAKEFIAWLVKGRG-NH2 (also: oligourea (urea) backbone at A^u units) [GG2[A^UA^UA^U]^13-16] | > 10000 | < 0.01 |
| HGEGTFTSDVSSYLEGQAAKEF[A^u][A^u][A^u]VKGRG-NH2 (N-terminus assumed; SMILES CC(C)C[C@H](NC(=O)[C@H](Cc1ccc(O)cc1)NC(=O)[C@H](CO)NC(=O)[C@H](CO)NC(=O)[C@@H](NC(=O)[C@H](CC(=O)O)NC(=O)[C@H](CO)NC(=O)[C@@H](NC(=O)[C@H](Cc1ccccc1)NC(=O)[C@@H](NC(=O)CNC(=O)[C@H](CCC(=O)O)NC(=O)CNC(=O)[C@@H](N)Cc1c[nH]cn1)[C@@H](C)O)[C@@H](C)O)C(C)C)C(=O)N[C@@H](CCC(=O)O)C(=O)NCC(=O)N[C@@H](CCC(N)=O)C(=O)N[C@@H](C)C(=O)N[C@@H](C)C(=O)N[C@@H](CCCCN)C(=O)N[C@@H](CCC(=O)O)C(=O)N[C@@H](Cc1ccccc1)C(=O)N[C@@H](C)CNC(=O)N[C@@H](C)CNC(=O)N[C@@H](C)CNC(=O)N[C@H](C(=O)N[C@@H](CCCCN)C(=O)NCC(=O)N[C@@H](CCCNC(=N)N)C(=O)NCC(N)=O)C(C)C) [GG2[A^UA^UA^U]^23-26] | 3930 | 0.01 |
| H-HGEGTFTSDVS[Au][Au][Au]GQAAKEFIAWLVKGRG-NH2 (also: oligourea (urea) backbone at A^u units) [GG2[A^UA^UA^U]^12-15] | > 10000 | < 0.01 |
